# Target: the molecule itself
# Assay: SEC
row,Protein,stoichiometry N
1,NΔ150-hTPH2 A328V (domain or fragment) not shown,4
2,"NΔ150-hTPH2, wild type (human tryptophan hydroxylase 2 lacking the N-terminal 150 amino acid regulatory domain) (domain or fragment) not shown",4
3,NΔ150-hTPH2 A328E (domain or fragment) not shown,4
4,"Human tryptophan hydroxylase 2, full-length wild type (enzyme, UniProt Q8IWU9 1-490, looked up) MQPAMMMFSSKYWARRGFSLDSAVPEEHQLLGSSTLNKPNSGKNDDKGNKGSSKREAATESGKTAVVFSLKNEVGGLVKALRLFQEKRVNMVHIESRKSRRRSSEVEIFVDCECGKTEFNELIQLLKFQTTIVTLNPPENIWTEEEELEDVPWFPRKISELDKCSHRVLMYGSELDADHPGFKDNVYRQRRKYFVDVAMGYKYGQPIPRVEYTEEETKTWGVVFRELSKLYPTHACREYLKNFPLLTKYCGYREDNVPQLEDVSMFLKERSGFTVRPVAGYLSPRDFLAGLAYRVFHCTQYIRHGSDPLYTPEPDTCHELLGHVPLLADPKFAQFSQEIGLASLGASDEDVQKLATCYFFTIEFGLCKQEGQLRAYGAGLLSSIGELKHALSDKACVKAFDPKTTCLQECLITTFQEAYFVSESFEEAKEKMRDFAKSITRPFSVYFNPYTQSIEILKDTRSIENVVQDLRSDLNTVCDALNKMNQYLGI",4
5,"Human tryptophan hydroxylase 2, full-length A328V variant (rs2887147) (enzyme, UniProt Q8IWU9 1-490, looked up) MQPAMMMFSSKYWARRGFSLDSAVPEEHQLLGSSTLNKPNSGKNDDKGNKGSSKREAATESGKTAVVFSLKNEVGGLVKALRLFQEKRVNMVHIESRKSRRRSSEVEIFVDCECGKTEFNELIQLLKFQTTIVTLNPPENIWTEEEELEDVPWFPRKISELDKCSHRVLMYGSELDADHPGFKDNVYRQRRKYFVDVAMGYKYGQPIPRVEYTEEETKTWGVVFRELSKLYPTHACREYLKNFPLLTKYCGYREDNVPQLEDVSMFLKERSGFTVRPVAGYLSPRDFLAGLAYRVFHCTQYIRHGSDPLYTPEPDTCHELLGHVPLLVDPKFAQFSQEIGLASLGASDEDVQKLATCYFFTIEFGLCKQEGQLRAYGAGLLSSIGELKHALSDKACVKAFDPKTTCLQECLITTFQEAYFVSESFEEAKEKMRDFAKSITRPFSVYFNPYTQSIEILKDTRSIENVVQDLRSDLNTVCDALNKMNQYLGI",4

# Reference: article PMC10440358 (Biochemistry and Biophysics Reports, 2023)
